For assay [1], the target named is HLA-DR1 (HLA-DRα*0101 and HLA-DRβ1*0101) (human). Kind of assay: ELISA; competitive peptide-binding assay: test peptide 10^-4-10^-10 M against 4.5 nM biotinylated CLIP 99-117 marker peptide for 0.1 μg refolded HLA-DR1-CLIP 105-117; 20 mM MES, 140 mM NaCl, 0.02% NaN3, pH 5, overnight at 37 °C; HLA-DR1 captured on anti-DR L243, bound marker detected with streptavidin-HRP; % competitive inhibition, four-parameter fit.

In assay [2] the target is HLA-DR1 (HLA-DRα*0101 and HLA-DRβ1*0101). Kind of assay: in vitro competition assay (HLA-DR1 peptide binding).
Assay [3] addresses HLA-DR1 (HLA-DRα*0101 and HLA-DRβ1*0101) (human). Kind of assay: ELISA.

Results on 3 substances are retold here after publication PMC6937582, “Human leukocyte antigen (HLA) class II peptide flanking residues tune the immunogenicity of a human tumor-derived epitope” (The Journal of Biological Chemistry, 2019).

Turning to “5T4_(11–30) peptide (from UniProt Q13641 11-30)”, the IC50 in assay [1] worked out at 535 nM. For 5T4_(111–130) 20-mer peptide E3A, the 50% inhibitory concentration (IC50) in assay [2] amounted to 149 nM. In turn, “IAV hemagglutinin_(306–319) epitope (peptide)” returned an IC50 in assay [3] of 13 nM.
